{
  "source": "the PETadex activity labels",
  "proteins": {"B1": {"name": "unnamed (protein)", "chain": "MHAVTSLGFVRASTAPGGRGWRRLAWALALGCGLGVGTTASYAQATGPNPSSAFLNASAGPLRVATESVSSFVTGFGGGTIYYPSTAGRYGVIAISPGFTATESSVAWLGRRLASHGFVAIVINTNSTLDQPASRATQLMAALRHATTGASSTVRARIDSTRQAVAGHSMGGGGTLIAAEDNPTLKAAIPLTPWNLSTSFNGVRVPTLIVGADGDTVASVAVHARPFYASLPASTFKAYAELNGASHFAPNTTNTPIGRYSVAWAKRFIDGDTRYSPFLCGAEHRAYATAAVFDRYNQNCPY"}, "B2": {"name": "unnamed (protein)", "chain": "MRKIASALEIAALVLASFAAGCGDDGSSNDNPMGMTTQTANTGTPDTGVSTMVPPASTDAGTSTNVGNTNTGTLDAGMVGSTTGIKPAVDSGAVDTGVALGDASSDSGSVAVGDGGGVISPVTPIMRGDAPTKASATAKGPYKVMSYTSGFPVTLYGGGTIWYPTDAEAPFGAVAICPGFTAAQSSIMNWGPFLASHGIVALTMDTATPLDVVDQRADELMDALASIKSENDRAASPIYKKIDTMRLGVMGWSMGGGGTWLAADMHPELRSAVTFAGHIVTAVNQDVSMVHVPTLMFAGSADNAILGGGMSQGVYDGIPESTPKMVWEIMGAGHDVANDPANTSGAVGRYGLSWEKVYLEGDMRYRQFLLEMPPTASYFKTNVK"}, "B3": {"name": "unnamed (protein)", "chain": "MPMYKLNHVFFAVALAACSALGCAEGSDGSTVSTGGDGVGGGAGETDLPAGAGGTAGVGGAAGSVDPSDIAGTGGSAGTAGETVAGSSGVPVAGTGGIPVAGSGGTGIVDSGGIGGGGAGGTLENNNFIRGPAPTAQSASQAGPYDVQSTTQGLRDPAEYGTQTLWYPTDAEPPFAAIAIVPGFVSPEGSIANWGPFLASHGIVVLTIGTNTGGDLPEVRSAALLAALDTIKAEHTRQGSPIEGKIDTGKLAVGGWSMGGGGTLLTITAHPELKAGLGICPWYMNAFAFAGNTVPVIMFAGTMDVLAGGMSQGFYDAIPASTPKMLFEIAGADHFYANDPLNVANPFTVQVGLYGLSWLKVFLEGDDRYRQFLLNPPQNASDFRTTVK"}, "B4": {"name": "unnamed (protein)", "chain": "MRPTRCPSRATSPLRSRSRVLAVLIVMATTLASTLLTVSVTPAATAARQSQSRSVAGSSSEHASVRATIPDPTTASLEATNGPLAIATYTVPQPSGYGSGTITYPTARGSYPAVVLMPGYQGTQQNLQWVAPRLASWGFIVINVGTKTLGDDPASRGRQISAAGTQLLSLGSVAGNPLYGKMNGTLGAAGHSMGGGGVMAALREDSRFTAGMPLAPYYPNQNFSGVTDPTFFLTCKSDPVAHGNTYALPWYNSMSQAEKLYIEVPGDHLCPMTGYGNKAKQGKWIVSFFSRWLYGDTRFSPFLCGAAREADKNNPSLVTRWQDTCPF"}, "B5": {"name": "unnamed (protein)", "chain": "MKTIARWQRRCAVGLGLLLLAAAAQSQTNPFQKGPDPTSTILNATAGPFAVATASVPSSVAGFGGGTVYYPTTAGSYAALALCPGFTATQSSIAWIGRRLATHGFVVITINTNSTFDQPPSRATQLMAALRYLTNSSSTTVRSRIDANRLGVGGHSMGGGGTLMATRDNPSLKVGIPMTPWSSTKSFSTVRVPTIIFGGENDTVAPVSSHSIPFYTSLPSSLDKAYAELNGASHFAPNSTNTPIGRYAVSWAKRFMDNDTRYDTFLCGSAHTAFATPAVFSDYRSTCPY"}, "B6": {"name": "unnamed (protein)", "chain": "MKKSILEKIAVGTGALLFSVSAFSFTPSPTPDPDPDPDPTPCQGECDFTRGPNPTSSYLEASRGPYTVRNVSVSRSVSGFGGGTIHYPTNTTGTMGAIAIVPGFLAGESSISWWGPRLASHGFVVITIATNSTFDQPASRETQLGRALDYLVSQSNSSSSPISGKVDSARLGAMGWSMGGGGTLRLASGSRLVAAIPLAPWHSGSNNFNRIQTPTMIIACENDTTAAVRSHASPFYNSIPSSTDKAFLEINNGSHSCANGGGSNGGLLGKYGVSWMKRFMDQDTRYNQFLCGPNHAANSAISEYRETCNY"}, "B7": {"name": "unnamed (protein)", "chain": "MQRQTCTTPVGPFHPQETSPMTLTSTLQRFAGIRPFALALPLAAIGWVAQAQTNPPTSSLLNATAGPLTVSTSSVSSFAARGFGGGTIYYPDATGSYGVVAISPGYTARQSSIAWLGRRLATHGFVVITIDTNSTLDQPPSRATQLMAALGHVVNNANATVRSRVDASKQAVAGHSMGGGGSLIAAQNNPTLKAAYPLTPWSVSKNYGTVRVPTMIIGADGDTIAAVTTHSRAFYNSLSSTVFKAYGELNNASHFTPNSTNTPIGRYAVSWMKRFVDSDTRYSPFLCGAPHDSYATRTVFDRYERNCPY"}},
  "data": [
    {"substrate": "BHET", "conditions": "120 h", "values": [
      {"protein": "B1", "plate clearing": "not clears the plate"},
      {"protein": "B2", "plate clearing": "not clears the plate"},
      {"protein": "B3", "plate clearing": "not clears the plate"},
      {"protein": "B4", "plate clearing": "not clears the plate"},
      {"protein": "B5", "plate clearing": "not clears the plate"},
      {"protein": "B6", "plate clearing": "not clears the plate"},
      {"protein": "B7", "plate clearing": "not clears the plate"}
    ]}
  ]
}
